We go through 13 substances from patent EP1018344A2.

The target of the assay is HLA-A2.1 (as the chimeric class I molecule A2.1/K^b on Jurkat A2.1/K^b cells) (human; mouse), A*02:0. Kind of assay: cell-based or functional assay.

As for “peptide 799.02 (HBenv194-213) (from UniProt P03138 194-213)”, the inhibition of release of serine esterase from CTL line 219 was over 25%.
“peptide 799.04 (HBenv234-253) (from UniProt P03138 234-253)” yielded an inhibition of release of serine esterase from CTL line 219 of over 25%.
“peptide 799.05 (HBenv246-265) (from UniProt P03138 246-265)” returned an inhibition of release of serine esterase from CTL line 219 of over 25%.
peptide 799.08 (HBenv309-328) had an inhibition of release of serine esterase from CTL line 219 of over 25%.
The substance peptide 799.09 (HBenv329-348) gave an inhibition of release of serine esterase from CTL line 219 of over 25%.
With peptide 799.10 (HBenv349-368), the inhibition of release of serine esterase from CTL line 219 is over 25%.
Turning to “peptide 800.04 (HBenv47-63) (from UniProt P03138 47-63)”, the inhibition of release of serine esterase from CTL line 219 is over 25%.
Take “peptide 800.05 (HBenv63-77) (from UniProt P03138 63-77)”: the inhibition of release of serine esterase from CTL line 219 was over 25%.
For “peptide 801.02 (HBenv141-157) (from UniProt P03138 141-157)”, the inhibition of release of serine esterase from CTL line 219 is over 25%.
Substance “peptide 802.01 (HBc11-27) (from UniProt P03146 11-27)” gave an inhibition of release of serine esterase from CTL line 219 of over 25%.
peptide 802.03 (HBc91-110): the inhibition of release of serine esterase from CTL line 219 was over 25%.
“peptide 802.04 (HBc111-125) (from UniProt P03146 111-125)” returned an inhibition of release of serine esterase from CTL line 219 of over 25%.
For “peptide 802.06 (HBc162-176) (from UniProt P03146 162-176)”, the inhibition of release of serine esterase from CTL line 219 was over 25%.
